We go through one molecule from patent publication US20060030524A1, “Treatment of systemic lupus erythematosus by down-regulating the autoimmune response to autoantigens” (Yeda Research and Development Co. Ltd., priority 1998, published 2006).

One test addresses T1, recombinant p53 (Mus musculus, UniProt P02340).
T1 construct: made in house; host or cells: E. coli BL21 (DE3)
Description: ELISA of sera of Ab1-immunized mice for Ab3 anti-p53 antibodies. Type of test: in vivo. How it is done:
(§1) E. coli BL21 (DE3) cells were transformed with the T7 expression vector containing mouse p53 DNA (Shohat-Foord et al, 1991). P53 was purified as described (Wolkowicz et al, 1995). All peptides, including the p53 peptide epitope of PAb-421 ([…]) (residues 364-383 of SEQ ID NO:1) were prepared using an automated synthesizer (Abimed AMS 422; Langenfeld, Germany) according to the manufacturer. Peptide purity was tested by analytical reverse phase HPLC and mass spectroscopic analysis.
(§2) ELISA assays were conducted in 96-well Maxisorp plates (Nunc, Roskilde, Denmark), which were coated with 10 μg test antigen per ml in PBS. After washing and blocking with 1% BSA in PBS for one hour at 37° C., diluted test sera (0.1 ml per well) was added for one hour at 37° C., followed by one hour incubation with goat anti-mouse IgG Fc specific, or IgG-isotype specific secondary antibodies conjugated to alkaline phosphatase, diluted 1:5000 (Jackson, Philadelphia, Pa.). A substrate solution containing 0.6 mg/ml of p-nitrophenylphosphate (Sigma, Rehovot, Israel) in diethanolamine-H2O, pH 9.8, was added, and the plates were read at 405 nm.
To test whether immunization to Ab1 could induce Ab3, immunized mice were assayed for antibodies to p53. […] However, Ab1 antibodies PAb-246 and PAb-421 induced a stronger Ab3 anti-p53 response in the BALB/c strain than they did in the C57BL/6 strain.

The test system of test [1] is native, histone-free DNA of Crithidia luciliae. The test can be described thus: Crithidia luciliae assay of sera of Ab1-immunized mice. Conditions: sera of BALB/c mice immunized to the Ab1. Type of test: in vivo. As to the method:
Slides with Crithidia were purchased from Immco (Buffalo, N.Y.) and incubated with the test sera according to the manufacturer's protocol.
Test sera were then examined for binding to DNA using the Crithidia luciliae assay, which detects antibodies—to native, histone-free DNA exposed at the base of the Crithidia flagellum. Both BALB/c and C57BL/6 mice immunized to […] or PAb-248 were negative for anti-DNA antibodies in the Crithidia assay, as were C57BL/6 mice immunized to PAb-421. […] The finding of positive reactivity in the Crithidia assay correlates with the clinical disease seen in the BALB/c mice. The Crithidia luciliae assay is used clinically for its diagnostic specificity for lupus in humans (Aarden et al, 1975).

The next test has as its system histones. Description: ELISA of sera of Ab1-immunized mice for anti-histone antibodies. The class given is in vivo. Conditions: mice immunized with Ab1, bled two weeks after second boost. How it is done:
as §2
(§3) For anti-DNA ELISA, a secondary antibody conjugated to horseradish peroxidase, and as substrate 1 mg/ml ABTS in 0.2 M citric acid, 0.2 M Na2HP04, and 3% H202 (all from Sigma) was used. The test antigens used were (Fab) 2 fragments of Ab2 anti-PAb-421, which were prepared as described (Harlow et al, 1988), recombinant p53, the p53 peptide epitope of PAb-421, histones or, after pre-coating with methylated BSA, calf thymus DNA (all from Sigma). All antibody titers are shown as the O. D. produced by the test sera at a dilution of 1:100. Dots represent individual sera, bars represent the median of each group.
(In an ELISA, binding on a coated surface is turned into a signal by an enzyme label.)

Test [2] deals with single-stranded calf thymus DNA. The test can be described thus: Anti-DNA ELISA of sera of Ab1-immunized mice. The class given is in vivo. Conditions: sera of BALB/c mice immunized with the Ab1. As to the method:
as §3

The test system of test [3] is (Fab)2 fragments of the Ab1 anti-p53 antibodies. The test can be described thus: ELISA of sera of Ab1-immunized mice for Ab2 anti-idiotypic antibodies. Type of test: in vivo. How it is done: as §2
For anti-DNA ELISA, a secondary antibody conjugated to horseradish peroxidase, and as substrate 1 mg/ml ABTS in 0.2 M citric acid, 0.2 M Na2HP04, and 3% H202 (all from Sigma) was used. The test antigens used were (Fab) 2 fragments of Ab2 anti-PAb-421, which were prepared as described (Harlow et al, 1988), recombinant p53, the p53 peptide epitope of PAb-421, histones or, after pre-coating with methylated BSA, calf thymus DNA (all from Sigma). All antibody titers are shown as the O. D. produced by the test sera at a dilution of 1:100. […]
To learn whether both strains of mice responded to the Ab1 immunization by making Ab2 anti-idiotypic antibodies, the reactivity of their sera to the (Fab)2 fragment of the Ab1 anti-p53 antibodies was determined.

The next test relates to BALB/c and C57BL/6 mice. Description: Induction of SLE-like disease by Ab1 immunization (proteinuria, histology, leukocyte counts). Type of test: in vivo. The source says:
Paraffin sections of tissue samples were either stained with hematoxylin and eosin, or immunostained with a peroxidase-labeled anti-mouse-IgG antibody (Jackson, Philadelphia, Pa.) and DAB (Sigma) according to the manufacturer's instructions.
Proteinuria was detected with Albustix strips (Bayer, Slough, UK). Leukocytes were counted from heparinized blood following 10-fold dilution in 1% acetic acid.

The test system of test [4] is Ab2 of immunized C57BL/6 mice cross-reactive to PAb-246 and PAb-421. Description: Absorption of Ab2 cross-reactivity by preincubation with anti-p53 antibodies. Type of test: binding. Conditions: sera of immunized C57BL/6 mice preincubated with the antibody. As to the method: FIG. 2 is a graph showing cross-reactivity of C57BL/6 mouse Ab2 to PAb-246 and PAb-421. […] The mean percent inhibition (+SD) of the reactivity to PAb-246 or PAb-421 by preincubation is shown.
The Ab2 cross-reactivity of the C57BL/6 mice seemed to be limited to PAb-246 and PAb-421. To confirm the Ab2 cross-reactivity between PAb-246 and PAb-421, tests were conducted to determine whether preincubation with either of the anti-p53 antibodies could absorb out the cross-reactivity. […] The mean percent inhibition (+SD) of the reactivity to PAb-246 or PAb-421 by preincubation is shown.

Test [5] concerns p53-responsive element oligonucleotide. Description: Band shift assay of sera of Ab1-immunized mice. Conditions: sera of BALB/c mice immunized to the Ab1. Type of test: in vivo.
In test [6] the target is T2, p53 peptide epitope of PAb-421 (364-383 of SEQ ID NO:1) (Mus musculus, UniProt P02340).
T2 construct: made in house; host or cells: chemical synthesis (Abimed AMS 422)
T2 sequence (P02340 364-383 limits assumed): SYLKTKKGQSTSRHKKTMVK
Description: ELISA of sera of Ab1-immunized mice for Ab3 to the p53 peptide epitope of PAb-421. Type of test: in vivo. As to the method:
as §1
ELISA assays were conducted in 96-well Maxisorp plates (Nunc, Roskilde, Denmark), which were coated with 10 μg test antigen per ml in PBS. […] A substrate solution containing 0.6 mg/ml of p-nitrophenylphosphate (Sigma, Rehovot, Israel) in diethanolamine-H2O, pH 9.8, was added, and the plates were read at 405 nm.
Because the two mouse strains differed in their Ab1 response to PAb-421, it was conceivable that they also might differ in their Ab3 response to this Ab1 antibody. The specificity of the Ab3 response was analyzed by probing test sera for antibodies to the C-terminal peptide epitope of p53 that is recognized by the inducing PAb-421 (amino acids 364-383 of SEQ ID NO:1).

T1 sequence (P02340 whole entry): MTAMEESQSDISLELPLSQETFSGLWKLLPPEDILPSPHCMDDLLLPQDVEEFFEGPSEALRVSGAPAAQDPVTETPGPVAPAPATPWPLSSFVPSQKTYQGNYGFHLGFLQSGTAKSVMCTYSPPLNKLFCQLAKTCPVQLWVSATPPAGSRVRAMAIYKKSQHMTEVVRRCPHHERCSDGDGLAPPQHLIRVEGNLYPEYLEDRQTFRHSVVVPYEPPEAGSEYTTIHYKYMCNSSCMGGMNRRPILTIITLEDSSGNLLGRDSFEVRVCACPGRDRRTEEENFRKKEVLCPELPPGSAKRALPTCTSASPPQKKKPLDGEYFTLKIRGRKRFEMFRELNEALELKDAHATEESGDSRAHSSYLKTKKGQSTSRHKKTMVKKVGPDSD

B1: PAb-421: monoclonal antibody (Ab1) against the C-terminal DNA-binding domain of murine p53; VH SEQ ID NO:2, VL SEQ ID NO:3 (antibody, listed as Mus sp., V domains shown)
VH: QVKLQESGAELVRSGASVKLSCTASGFNIKDYYMHWVKQRPEQGLEWIGWIDPENGDTEYAPKFQGKATMTADTSSNTAYLQLSSLASEDTAVYYCNFYGDALDYWGQGTTVTVSS
VL: DIQLTQSPLTLSVTIGQPASISCKSSQSLLDSDGKTYLNWLLQRPGQSPKRLIYLVSKLDSGVPDRFTGSGSGTDFTLKINRVEAEDLGVYYCWQGTHSPLTFGAGTKLK
modifications: BINDING (26)..(35) Complementary Determining Region; BINDING (24)..(39) Complementary Determining Region
As to B1, the “induction of Ab3 anti-p53 antibodies (FIG. 4A)” value with recombinant p53 (BALB/c mice) and in the test with recombinant p53 (C57BL/6 mice) was “make anti-p53 antibodies” in each case. In [1], the “anti-DNA antibodies in the Crithidia assay” value was “produced anti-DNA antibodies detectable by the Crithidia assay”. In addition, in the test on histones, the “mice that developed significant titers of anti-histone antibodies” value is given as “About 30%”. Moreover, in test [2], the “anti-DNA reactivity to single stranded calf thymus DNA (FIG. 3)” value is listed as “High anti-DNA reactivity”. Further, the “Ab2 anti-idiotypic response, specificity (FIG. 1)” value is “made antibodies specific to PAb-421” in [3] (BALB/c mice); “cross-reacted to both PAb-246 and PAb-421” in [3] (C57BL/6 mice). Moreover, in the test with BALB/c and C57BL/6 mice (80 BALB/c mice immunized with Ab1), the “immunized mice that exhibited proteinuria” value is recorded as “about 95%”. Besides, the “development of lupus after Ab1 immunization” value is reported as “develop a lupus-like disease” in the test on BALB/c and C57BL/6 mice (BALB/c mice); “did not develop disease” with BALB/c and C57BL/6 mice (C57BL/6 mice). The “mice leukopenic (<4000 leukocytes per ml) and lymphopenic (<1200 lymphocyte per ml)” value with BALB/c and C57BL/6 mice (BALB/c mice immunized with Ab1) was “Seven out of ten”. Also, in [4], the “absorption of Ab2 cross-reactivity between PAb-246 and PAb-421 by preincubation (FIG. 2)” value is recorded as “absorbed out significantly”. In test [5], the “anti-DNA Ab2 to the p53-responsive element (band shift)” value is “did not make such anti-DNA antibodies”. Also, the “Ab3 antibodies to the p53 peptide epitope of PAb-421 (FIG. 5)” value in test [6] (BALB/c mice) is reported as “made antibodies to the peptide epitope of PAb-421”; in test [6] (C57BL/6 mice), “did not make antibodies to the C-terminal p53 peptide”.
